The values that follow come from article PMC9674253.

For series [1], the target named is NPAS4 (1-348);ARNT (82-465) (mouse;mouse, UniProt Q8BGD7;P53762 1-348;82-465, |). As to the kind of experiment: fluorescence polarization.
Series [2] deals with NPAS4 (1-348);ARNT2 (50-439) (mouse;mouse, UniProt Q8BGD7;Q61324 1-348;50-439, |). As to the kind of experiment: fluorescence polarization. On the technique in general: Polarisation of emitted light reports the rotation of a fluorescent probe.
Chain of NPAS4 (1-348);ARNT2 (50-439) (Q8BGD7 1-348, chain 1 of 2): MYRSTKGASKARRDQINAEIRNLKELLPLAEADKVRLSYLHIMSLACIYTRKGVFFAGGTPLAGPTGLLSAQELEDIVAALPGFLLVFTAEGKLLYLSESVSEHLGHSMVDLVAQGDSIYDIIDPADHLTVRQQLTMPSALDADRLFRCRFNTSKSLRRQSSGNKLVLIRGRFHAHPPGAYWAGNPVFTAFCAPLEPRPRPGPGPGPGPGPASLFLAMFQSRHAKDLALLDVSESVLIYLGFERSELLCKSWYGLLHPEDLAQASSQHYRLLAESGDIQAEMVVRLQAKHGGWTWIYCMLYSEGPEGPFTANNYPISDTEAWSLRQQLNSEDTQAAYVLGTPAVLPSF
Chain of NPAS4 (1-348);ARNT2 (50-439) (Q61324 50-439, chain 2 of 2): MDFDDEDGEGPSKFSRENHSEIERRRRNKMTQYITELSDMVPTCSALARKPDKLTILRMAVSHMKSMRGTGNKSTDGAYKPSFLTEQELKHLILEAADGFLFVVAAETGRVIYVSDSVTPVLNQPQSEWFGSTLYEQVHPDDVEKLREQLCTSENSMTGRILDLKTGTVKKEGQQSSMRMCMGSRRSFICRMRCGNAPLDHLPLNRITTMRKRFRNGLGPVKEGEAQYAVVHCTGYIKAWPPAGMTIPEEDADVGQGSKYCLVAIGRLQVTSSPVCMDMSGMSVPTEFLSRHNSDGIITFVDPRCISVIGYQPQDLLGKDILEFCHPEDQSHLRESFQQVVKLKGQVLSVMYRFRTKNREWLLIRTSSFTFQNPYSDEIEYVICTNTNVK

Chain of NPAS4 (1-348);ARNT (82-465) (Q8BGD7 1-348, chain 1 of 2): as the sequence (Q8BGD7 1-348, chain 1 of 2) above
Chain of NPAS4 (1-348);ARNT (82-465) (P53762 82-465, chain 2 of 2): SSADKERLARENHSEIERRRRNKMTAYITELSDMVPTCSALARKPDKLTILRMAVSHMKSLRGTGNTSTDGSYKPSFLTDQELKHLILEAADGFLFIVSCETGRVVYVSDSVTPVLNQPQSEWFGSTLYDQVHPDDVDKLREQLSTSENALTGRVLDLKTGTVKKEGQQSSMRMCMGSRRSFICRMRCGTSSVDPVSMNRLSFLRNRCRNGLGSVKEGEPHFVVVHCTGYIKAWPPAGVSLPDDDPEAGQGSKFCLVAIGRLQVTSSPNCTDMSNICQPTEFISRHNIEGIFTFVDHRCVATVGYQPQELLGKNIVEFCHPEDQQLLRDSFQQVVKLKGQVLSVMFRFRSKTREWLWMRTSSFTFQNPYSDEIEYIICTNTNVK

B1: 21-mer NPAS4 response element (FP) (dsDNA)
DNA 1: GGATGAGGTCGTGAGTGATGA
DNA 2: TCATCACTCACGACCTCATCC
For orientation: Kd means the free concentration of one partner at which half of the binding sites on the other are occupied at equilibrium, for simple one-to-one binding. Turning to B1, the Kd in series [1] worked out at 13.1 ± 0.4 nM; in series [2], 46.8 ± 3.9 nM.
